# B1: wild-type superoxide dismutase 1 (SOD1), endogenous mouse (enzyme)
# chain: not shown
# notes: superoxide dismutase 1, mouse, endogenous in brain slices; source: endogenous, mouse brain slices
# Target: the molecule itself
# Experiment: cross-linking; in situ 1 mM DSG on minced human brain tissue (cerebellum, motor cortex) or mouse organotypic brain slices (control or 0.25 mM arsenite for 2 h), 37 °C, 30 min, quenched with 20 mM Tris; nucleo-cytoplasmic fractionation; immunoblot
protein,measurement,value
B1,stoichiometry N,2

# From article PMC5491494, “Functional and dynamic polymerization of the ALS-linked protein TDP-43 antagonizes its pathologic aggregation” (Nature Communications, 2017)
